{
  "source": "paper doi:10.1101/2023.02.24.529973",
  "about": "(bioRxiv, 2023)",
  "proteins": {"B1": {"name": "Rv2067c, recombinant tagless protein (enzyme)", "chain": "TDDHPRADIVSRQYHRWLYPHPIADLEAWTTANWEWFDPVHSHRILWPDREYRPDLDILIAGCGTNQAAIFAFTNRAAKVVAIDISRPALDHQQYLKDKHGLANLELHLLPIEELATLGRDFDLVVSTGVLHHLADPRAGMKELAHCLRRDGVVAAMLYGKYGRIGVELLGSVFRDLGLGQDDASIKLAKEAISLLPTYHPLRNYLTKARDLLSDSALVDTFLHGRQRSYTVEECVDLVTSAGLVFQGWFHKAPYYPHDFFVPNSEFYAAVNTLPEVKAWSVMERLETLNATHLFMACRRDRPKEQYTIDFSTVAALDYVPLMRTRCGVSGTDMFWPGWRMAPSPAQLAFLQQVDGRRTIREIAGCVARTGEPSGGSLADLEEFGRKLFQSLWRLDFVAVALPASG"}},
  "biological_target": "the molecule itself",
  "experiment": "SEC",
  "data": [
    {"protein": "B1", "values": [
      {"measurement": "stoichiometry N", "result": 2}
    ]}
  ]
}
